Measurements from IntAct's records for PubMed 15555586.

B1: Suppressor of kinetochore protein 1 (Schizosaccharomyces pombe (strain ATCC 38366 / 972)), Q9Y709 (parent)
chain: MSKIKLISSDNEEFVVDQLIAERSMLIKNMLEDVGEINVPIPLPNVSSNVLRKVLEWCEHHKNDLYSGTEEESDIRLKKSTDIDEWDRKFMAVDQEMLFEIVLASNYLDIKPLLDTGCKTVANMIRGKSPEDIRKTFNIPNDFTPEEEEQIRKENEWAEDR
partner: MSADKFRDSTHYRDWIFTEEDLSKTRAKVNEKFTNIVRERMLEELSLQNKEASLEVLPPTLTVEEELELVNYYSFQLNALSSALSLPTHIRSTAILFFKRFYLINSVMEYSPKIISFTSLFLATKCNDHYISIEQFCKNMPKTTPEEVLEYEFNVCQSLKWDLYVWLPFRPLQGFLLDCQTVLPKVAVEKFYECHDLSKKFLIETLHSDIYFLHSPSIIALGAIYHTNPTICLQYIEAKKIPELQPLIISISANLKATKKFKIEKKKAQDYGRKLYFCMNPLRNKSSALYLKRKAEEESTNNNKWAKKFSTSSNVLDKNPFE

Variants of: B1
Details: with cgm2_schpo mcs2, P36613

| Variant | effect of a mutation on the interaction |
| --- | --- |
| I139N | decreasing interaction |
